Patent US12012446B2, “Epstein-Barr virus antibodies and uses thereof” (priority 2017, dated 2024)

How the values were obtained:
[1] = system: EBV gp350 20-mer linear peptides (gp350 regions); format: binding, Epstein-Barr virus; settings: 10 μg/ml mAb, 10 μg/ml peptide
Description: (§1) Forty-five sequential 20-mer linear peptides, covering the whole sequence of gp350 (GenBank: NC_007605.1), with an exception of aa 862-881, were synthesized using a solid phase method and cleaved using a low-high hydrogen fluoride method by the GenicBio, as previously described (58).
(§2) The binding of anti-gp350 mAbs to 45 synthesized 20-mer sequential peptides covering the total length of gp350 was analyzed using indirect ELISA as described (58). Briefly, immunoplates were coated with 50 μl of 10 μg/ml EBV gp350 peptides (forty-five 20-mers) diluted in PBS and incubated overnight at 4° C.; 0.5 μg/ml recombinant EBV gp350 ectodomain protein was used as a positive control. After washing three times with washing buffer (PBS containing 0.05% (v/v) Tween 20), plates were blocked with 100 μl washing buffer containing 3% BSA (blocking buffer), incubated for 1 hour at room temperature, and washed as above. Ten μg/ml purified mAbs were added to each well in triplicate and incubated for 2 hours at room temperature. […] The plates were washed as described above, followed by incubation with goat anti-mouse IgG or goat anti-human IgG HRP-conjugated secondary antibody (1:2,000 diluted in PBS) at room temperature for 1 hour. The plates were washed again and the chromogenic substrate ABTS was added. The reaction was stopped using ABTS peroxidase stop solution. The absorbance was read at an optical density of 405 nm using an ELISA plate reader.
(§3) The peptide library, consisting of 20-mer peptides, covered the entire gp350 protein, with the exception of AA 862-881 (Table 9).
(§4) Purified recombinant gp350 ectodomain was used as a control to validate the binding activity for all of the antibodies used. The overall gp350 sequence was divided into nine different regions consisting of ˜100 AA (FIG. 7).

goat anti-mouse IgG = test: ELISA for reactivity to anti-mouse IgG (HAMA testing); format: binding; settings: 10 μg/ml antibody on gp350-coated plates
Excerpt: (§5) ClustalW alignment of heavy chain (i) and light chain (ii) variable region amino acid sequences. Murine 72A1 heavy chain and light chain AA sequences are represented by SEQ ID NOs: 178 and 179, respectively, and humanized 72A1 heavy chain and light chain AA sequences are represented by SEQ ID NOs: 180 and 181, respectively. Regions of identical sequence are represented by *. Regions of similarity are represented by :. […] FIG. 4C: ELISA determining the reactivity of humanized 72A1 to murine IgG. Soluble EBV gp350 protein was used as the target antigen at 0.5 μg/ml. […] Bound antibodies were detected using HRP-conjugated anti-mouse IgG or anti-human IgG (1:2,000). […] Unstained cells and cells stained with secondary goat anti-mouse or anti-human conjugated to AF488 alone were used as negative controls.
(§6) ELISA was performed to determine the reactivity of chimeric and humanized antibodies to murine IgG. Soluble EBV gp350 or gH/gL protein was used as the target antigen at 0.5 μg/ml. […] Bound antibodies were detected using HRP-conjugated anti-mouse IgG or anti-human IgG (1:2,000). […] To determine whether chimeric and humanized anti-gp350 retained the ability to recognize linear epitopes on gp350, lysate from CHO WT cells and CHO cell stably expressing gp350 were analyzed by western blot analysis.

EBV [2] = settings: SCID mice with PBMC from EBV-naïve donors; cited from earlier work
EBV [3] = settings: small phase 1 clinical trial; cited from earlier work
[4] = molecular target: T1, gp350 protein on gp350 expressing CHO cells (Epstein-Barr virus, UniProt P03200); test: Flow cytometry of CHO cells stably expressing EBV gp350; format: binding; settings: for type of gp350 epitope recognized (linear / conformational): concluded from flow cytometry and immunoblot
T1 construct: stably co-transfected with full-length pCAGGS-gp350/220 and pCI-puro vector; expressed in transfected cells; host or cells: CHO cells
T1 sequence (P03200 whole entry): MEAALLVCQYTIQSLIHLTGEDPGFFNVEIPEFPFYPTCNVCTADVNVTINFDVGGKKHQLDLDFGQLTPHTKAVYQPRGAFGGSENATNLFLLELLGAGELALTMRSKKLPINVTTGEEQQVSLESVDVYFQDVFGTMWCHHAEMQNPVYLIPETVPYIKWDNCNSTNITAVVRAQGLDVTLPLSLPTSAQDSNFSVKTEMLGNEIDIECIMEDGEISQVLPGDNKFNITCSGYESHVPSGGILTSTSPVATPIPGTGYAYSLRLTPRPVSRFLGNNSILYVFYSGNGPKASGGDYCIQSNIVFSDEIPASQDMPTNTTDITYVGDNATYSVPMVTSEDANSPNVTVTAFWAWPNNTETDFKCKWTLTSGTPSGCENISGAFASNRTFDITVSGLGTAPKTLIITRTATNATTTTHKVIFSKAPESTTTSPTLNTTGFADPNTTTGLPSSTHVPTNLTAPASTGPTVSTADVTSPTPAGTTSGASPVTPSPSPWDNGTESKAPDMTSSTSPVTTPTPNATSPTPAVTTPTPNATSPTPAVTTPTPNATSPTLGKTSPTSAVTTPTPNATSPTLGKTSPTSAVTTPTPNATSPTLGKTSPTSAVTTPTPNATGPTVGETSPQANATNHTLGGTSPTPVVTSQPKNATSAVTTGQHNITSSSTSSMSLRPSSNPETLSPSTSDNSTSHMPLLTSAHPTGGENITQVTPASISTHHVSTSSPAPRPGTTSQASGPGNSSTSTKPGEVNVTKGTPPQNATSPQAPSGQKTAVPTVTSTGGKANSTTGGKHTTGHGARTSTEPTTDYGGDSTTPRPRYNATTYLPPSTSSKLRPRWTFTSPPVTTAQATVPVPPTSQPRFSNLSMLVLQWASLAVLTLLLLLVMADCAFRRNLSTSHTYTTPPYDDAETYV
Description: To assess the ability of purified anti-gp350 mAb to detect surface expression of EBV gp350 protein by flow cytometry, CHO cells that stably express EBV gp350 were harvested and stained with purified anti-gp350 (10 μg/ml), followed by AF488 goat anti-mouse IgG secondary antibody. Flow cytometric analysis was performed on a C-6 FC (BD Biosciences) and data was analyzed using FlowJo Cytometry Analysis software (FlowJo, LLC) as described (47). All the experiments were independently repeated three times.
These novel antibodies were analyzed by flow cytometric analysis for surface expression of gp350 protein on 10^6 CHO cells transfected with 1 μg of pCAGGS-gp350. gp350 expressing cells were resuspended in PBS, stained with anti-gp350 mAb, which detects the gp350 ED, followed by secondary Ab goat anti-mouse conjugated to AF488. Additionally, western blot analysis was conducted on untransfected and pCAGGS-gp350 transfected CHO lysate. Anti-gp350 mAb 72A1 was used as a positive control (1:100) and anti-gp350 hybridoma clone supernatants were used at 1:50, and anti-mouse secondary antibody was used at 1:2000.
Flow cytometric analysis of gp350 and gH/gL specificity was performed. CHO wild type cells and gp350 or gH/gL-expressing CHO cells were stained with primary antibodies, followed by secondary goat anti-mouse or anti-human conjugated to AF488. Unstained cells and cells stained with secondary goat anti-mouse or anti-human conjugated to AF488 alone, were used as negative controls.

[5] = molecular target: T2, EBV gp350 20-mer linear peptides (gp350 regions) (Epstein-Barr virus, UniProt P03200); format: binding
T2 construct: purchased GenicBio; host or cells: chemical solid-phase synthesis
T2 sequence (P03200 142-161): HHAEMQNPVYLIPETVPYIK
Description: as §1, §2, §3, §4

goat anti-human IgG = test: ELISA for reactivity to anti-human IgG (HAMA testing); format: binding; settings: 10 μg/ml antibody on gp350-coated plates
Excerpt: as §5, §6

B1: m72A1: EBV anti-gp350 neutralizing mouse antibody purified from HB168 hybridoma (ATCC); SEQ ID NO: 100 / 101 (antibody, V domains shown)
VH: PELVKPGTSMKISCKASGSSFTDYTMNWMKQSHGKNLEWIGLINPYNGGTRYNQKFKGKATLTLDKSSSTAYMEVLSLTSEDSAVYYCAGGLRRVNWFAYWGQGTLVSVSAAKTTPPSVYPLAPGSAAQTNSMVTLG
VL: QAVLTQESALTTSPGETVTLTCRSSTGAVTTSNYANWVQEKPDHLFTGLIGGTNNRVPGVPARFSGSLIGDKAALTITGAQTEDEAIYFCVLWHSNHWVFGGGTKLTVL
modifications: heavy chain mAb 72A1; light chain mAb 72A1
binding to gp350 region AA 102-201 (linear peptides) [1]: bound
reactivity to goat anti-mouse IgG above the background (1×PBS) (goat anti-mouse IgG): 28 fold
reactivity to goat-anti-mouse IgG as compared to goat anti-human IgG (goat anti-mouse IgG): 9 fold
protection against EBV and development of EBV+ tumors or PTLD-like lesions (EBV [2]): completely protected
patients developing a hypersensitivity reaction (EBV [3]): one
patients who developed human anti-mouse Abs (HAMA) (EBV [3]): all 4
short-term protection against acquiring EBV after transplantation (EBV [3]): 3 out of 4

B2: HB20: murine anti-EBV gp350 mAb, IgG2a κ; SEQ ID NO: 128 / 129; neutralizing (antibody, V domains shown)
VH: ELVKPGASVKLSCKASGYTFTSYWIQWVKQRPGQGLEWIGEINPTNGHTNYNEKFKTKATLTVDKSSSTAYMRLSSLTSEDSAVYYCARNLYYYGRPDYWGQGTSVTVSSAKTTAPSVYPLAPVCGDTTGSSVTLG
VL: SSLSASLGDRVTISCRASQDIGNYLNWYQQKPDGTVKLLIYYTSRLHSGVPSRFSGSGSGTDYSLTISNLEQEDIATYFCQQGNALPPTFGGGTKLEIKRADAAPTV
modifications: heavy chain mAb HB20; light chain mAb HB20
notes: murine anti-EBV gp350 mAb, IgG2a κ; neutralizing
type of gp350 epitope recognized (linear / conformational) [4]: only recognized conformational epitopes
binding to gp350 region AA 102-201 (linear peptides) [1]: bound

B3: h72A1: humanized 72A1 IgG1; heavy and light chain SEQ ID NOs: 180 and 181 (antibody, V domains shown)
VH: EVQLVESGGGLVQPGGSLRLSCAASGSSFTDYTMNWMRQSPGKGLEWIGLINPYNGGTRYADSVKGRATLSLDKSKNTAYLQMNSLRAEDTAIYYCAGGLRRVNWFAYWGQGTLVTVSS
VL: DAQLTQSPILLSASVGDRVTITCRSSTGAVTTSNYANWVQERTNGSFRGLIGGTNNRVPGVPSRFSGSLSGDDATLTISSLQPEDEADYFCVLWHSNHWVFGAGTKVEIKR
Flow cytometry (CHO Cells) ([4]; CHO cells stably expressing gp350 on the surface, native/conformational epitopes): recognized native epitopes of gp350 expressed on CHO cells surface, comparable to m72A1
recognition of gp350 peptides of the principal neutralizing epitope (142-161) [5]: recognized both native gp350 as well as gp350 peptides that constitute the principal gp350 neutralizing epitope (142-161)
binding to gp350 region AA 102-201 (linear peptides) [1]: bound
reactivity to goat anti-mouse IgG above the background (1×PBS) (goat anti-mouse IgG): did not react at all
reactivity to goat anti-human IgG over the background (goat anti-human IgG): 2100 fold

B4: HB11: murine anti-EBV gp350 mAb, IgG1 κ; SEQ ID NO: 120 / 121; neutralizing (antibody, V domains shown)
VH: PSLVKPSQTLSLTCSVTGDSITSGFWNWIRKFPGNKLEYMGYISYSGSTYYNPSLKSRISITRDTSKNQYYLQLNSVTTEDTATYYCARGNGGNYDWYFDVWGAGTTVTVSSAKTTPPSVYPLAPGSAAQTNSMVTLG
VL: AIMSASLGEKVTMSCRASSSVNFMNWYQQKSDDSPKLLIYYISNLAPGVPARFSGSGSGNSYSLTISGMEGEDAATYYCQQFTSSPSWTFGGGTKLEIKRADAAPTV
modifications: heavy chain mAb HB11; light chain mAb HB11
notes: murine anti-EBV gp350 mAb, IgG1 κ; neutralizing
type of gp350 epitope recognized (linear / conformational) [4]: recognized both linear and conformational epitopes
binding to gp350 region AA 102-201 (linear peptides) [1]: bound

B5: HB5: murine anti-EBV gp350 mAb, IgG2a κ; SEQ ID NO: 108 / 109; neutralizing (antibody, V domains shown)
VH: AELVRPGASVKISCKAFGYTFTNHNINWVKQRPGQGLDWIGYINPYNDYTSYNQKFKGKATLTVDKSSNTAYMELSSLTSEDSAVYYCARSEGWLRRGAWFAYWGQGTLVTVSAAKTTAPSVYPLAPVCGDTTGSSVTLG
VL: AILSVSPGERVSFSCRASQSIGTSIHWYQQRTNDSPRLLIKYASESISGIPPRFSGSGSGTDFTLSINSVESEDIADYHCQQSNSWPMLTFGAGTKLELKRADAAPTV
modifications: heavy chain mAb HB5; light chain mAb HB5
notes: as for B2
type of gp350 epitope recognized (linear / conformational) [4]: recognized both linear and conformational epitopes
binding to gp350 region AA 102-201 (linear peptides) [1]: bound
